Test [1] has as its target T1, human GARP protein not in any GARP/TGFβ1 complex (protein used in ELISA and Octet) (human, UniProt Q14392 20-627, limits assumed).
T1 construct: Coated on plates at 2 µg/ml in the ELISA; also called hGARP; human GARP alone
T1 sequence (looked up): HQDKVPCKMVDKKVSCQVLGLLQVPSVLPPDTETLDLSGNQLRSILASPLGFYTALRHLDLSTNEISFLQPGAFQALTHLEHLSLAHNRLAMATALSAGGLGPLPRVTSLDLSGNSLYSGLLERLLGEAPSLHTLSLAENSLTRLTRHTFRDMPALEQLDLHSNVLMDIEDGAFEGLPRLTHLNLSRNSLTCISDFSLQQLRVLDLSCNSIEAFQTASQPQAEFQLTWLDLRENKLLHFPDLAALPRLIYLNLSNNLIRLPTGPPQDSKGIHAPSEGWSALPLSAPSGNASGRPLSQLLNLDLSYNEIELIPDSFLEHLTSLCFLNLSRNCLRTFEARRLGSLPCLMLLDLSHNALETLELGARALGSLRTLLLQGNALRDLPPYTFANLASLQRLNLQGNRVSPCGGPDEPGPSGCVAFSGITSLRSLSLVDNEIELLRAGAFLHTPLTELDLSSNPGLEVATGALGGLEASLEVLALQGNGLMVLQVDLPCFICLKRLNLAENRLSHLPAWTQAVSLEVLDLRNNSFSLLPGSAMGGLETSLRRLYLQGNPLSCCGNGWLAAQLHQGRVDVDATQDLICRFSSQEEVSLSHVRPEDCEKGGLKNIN
Put plainly: Octet.

Test [2] addresses T2, human GARP/TGFβ1 complex (protein used in ELISA and Octet) (human, UniProt Q14392 20-627; P01137 30-390, limits assumed).
T2 construct: Coated on plates at 4 µg/ml in the ELISA; also called hGARP/TGFβ1; human GARP/latent TGFβ1 complex
The test can be described thus: Octet.

For test [3], the target named is T3, human GARP/latent TGFβ1 complex on cells (human, UniProt Q14392 20-662; P01137 30-390).
T3 construct: whole, on cells; also called human GARP/TGFβ1 complex; human GARP/TGFβ complex
The test can be described thus: flow cytometry on human GARP/latent TGFβ1 transfected CHO-S cells, goat anti-human IgG(H+L) FITC.

The target in test [4] is T4, mouse GARP/latent TGFβ1 complex on transfected CHO-S cells (mouse).
T4 construct: also called mouse GARP/TGFβ1 complex; mouse GARP/TGFβ complex
Put plainly: flow cytometry on mouse GARP/latent TGFβ1 transfected CHO-S cells, goat anti-human IgG(H+L) FITC.

Test [5] deals with T3, human GARP/latent TGFβ1 complex on cells. Put plainly: flow cytometry on human GARP/latent TGFβ1 transfected CHO-S cells, goat anti-human IgG(H+L) FITC. This is another data set of the same source.

Read-outs that look alike come from different tables or passages of the source.

B1: Clone hGA17 (antibody, human IgG1, kappa, V domains shown)
VH: QVQLVQSGAEVKKPGASVKVSCKASGFNIKDTYFHWVRQAPGQGLEWMGRIDPTNGNGRYAQKFQGRVTMTRDTSTSTVYMELSSLRSEDTAVYYCATSTGTGYFALVYWGQGTTVTVSS
VL: DIQLTQSPSFLSASVGDRVTITCKASQNVGSAVAWYQQKPGKAPKLLIYWSSTRHTGVPSRFSGSGSGTEFTLTISSLQPEDFATYYCQQYSNYPLTFGGGTKLEIKR
notes: Humanized form of mouse clone GA17; kappa light chain
On to B1, for which the Kd was 0.429 nM in test [1] and 0.696 nM in test [2].

B2: Clone GA1#7 (antibody, V domains shown)
VH: QVQLVQSGGGVVQPGRSLRLSCAASGFTFSSYAMHQVRQAPGKGLEWVAVISYDGSQKYYADSVKGRFTISRDNSKNTLYLQMNSLRAEDTAVYYCARDALRTYYYYGMDVWGQGTTVTVSS
VL: SYELTQPPSVSVSPGQTARITCSGDALPDRYTYWYQQKPGQAPVLVIYSDNERPSGIPERFSGSSSGTTATLTINGVQAEDEADYYCQSSDDTYTFGGGTKLTVL
B2: the “EC50 (read off the curve)” value in test [3] is around 1 µg/mL.

B3: Clone GA1#8 (antibody, V domains shown)
VH: QVQLVQSGGGVVQPGRSLRLSCAASGFTFSSYAMHQVRQAPGKGLEWVASISYDGSNKYYADSVKGRFTISRDNSKNTLYLQMNSLRAEDTAVYYCARDALRTYYYQGMDVWGQGTTVTVSS
VL: SYELTQPPSVSVSPGQTARITCSGDALPDRYTYWYQQKPGQAPVLVIYSDNERPRGIPERFSGSSSGTTATLTINGVQAEDEADYYCQSADYTYTFGGGTKLTVL
With B3, the “EC50 (read off the curve)” value in test [3] is around 1 µg/mL. Binding in test [2] was characterised by a dissociation constant (Kd) of 0.281 nM.

B4: Clone GA1 (antibody, V domains shown)
VH: QVQLVQSGGGVVQPGRSLRLSCAASGFTFSSYAMHQVRQAPGKGLEWVAVISYDGSNKYYADSVKGRFTISRDNSKNTLYLQMNSLRAEDTAVYYCARDVLRTYYYYGMDVWGQGTTVTVSS
VL: SYELTQPPSVSVFPGQTARITCSGDALPDRYTYWYQQKPGQAPVLVIYSDNERPSGIPERFSGSSSGTIATLTINGVQAEDEADYYCQSADDTYTFGGGTKLTVL
With B4, the “EC50 (read off the curve)” value in test [4] was around 0.2 µg/mL; in test [5] it was around 0.6 µg/mL; in test [3], around 1 µg/mL.

The values above are taken from US20230340098A1 (SHANGHAI HENLIUS BIOTECH, published 2023).
